Measured values as given in publication PMC12654924.

What was measured:
[1] = molecular target: hemagglutinin of the Asiatic toad influenza-like virus, ectodomain (Asiatic toad influenza-like virus); test: cryo-EM structure
[2] = molecular target: hemagglutinin of the spiny eel influenza-like virus, ectodomain (spiny eel influenza-like virus); test: cryo-EM structure

| Substance | stoichiometry N [1] | stoichiometry N [2] |
| --- | --- | --- |
| hemagglutinin of the Asiatic toad influenza-like virus, ectodomain (domain or fragment) | 3 |  |
| hemagglutinin of the spiny eel influenza-like virus, ectodomain (domain or fragment) |  | 3 |
